# Test results from article PMC8938504 (Nature Communications, 2022).
# B1: MBP:RGA5_HMA (wild-type RGA5 HMA domain fused to the maltose-binding protein) (domain or fragment)
# chain: SALTGQRTKIVVKVHMPCGKSRAKAMALAASVNGVDSVEITGEDKDRLVVVGRGIDPVRLVALLREKCGLAELLMVELVEKE
# Assays:
# 6×His-tagged AVR1-CO39 = 6×His-tagged AVR1-CO39 (Magnaporthe oryzae); assay: SPR; […] (single-cycle kinetics, […]; 25 °C; 20 mM Tris pH 8, 150 mM NaCl, 0.5 mM DTT; […]; conditions: both partners purified
# 6×His-tagged AVR-Pia = 6×His-tagged AVR-Pia (Magnaporthe oryzae); assay: as above; conditions: both partners purified
# 6×His-tagged AVR-Pia (Magnaporthe oryzae), sequence (F7J0N2 982-1116): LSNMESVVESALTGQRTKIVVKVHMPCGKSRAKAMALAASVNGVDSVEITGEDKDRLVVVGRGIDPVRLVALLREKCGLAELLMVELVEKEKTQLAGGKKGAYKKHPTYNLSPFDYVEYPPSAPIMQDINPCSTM
# 6×His-tagged AVR1-CO39 (Magnaporthe oryzae), sequence (F7J0N2 982-1116): as above
binder,measurement,setting,value
B1,Kd,6×His-tagged AVR1-CO39,4.9 µM
same,Kd,6×His-tagged AVR-Pia,7.2 µM
